B1: Peripheral plasma membrane protein CASK (Homo sapiens), O14936 (parent)
chain: MADDDVLFEDVYELCEVIGKGPFSVVRRCINRETGQQFAVKIVDVAKFTSSPGLSTEDLKREASICHMLKHPHIVELLETYSSDGMLYMVFEFMDGADLCFEIVKRADAGFVYSEAVASHYMRQILEALRYCHDNNIIHRDVKPHCVLLASKENSAPVKLGGFGVAIQLGESGLVAGGRVGTPHFMAPEVVKREPYGKPVDVWGCGVILFILLSGCLPFYGTKERLFEGIIKGKYKMNPRQWSHISESAKDLVRRMLMLDPAERITVYEALNHPWLKERDRYAYKIHLPETVEQLRKFNARRKLKGAVLAAVSSHKFNSFYGDPPEELPDFSEDPTSSGLLAAERAVSQVLDSLEEIHALTDCSEKDLDFLHSVFQDQHLHTLLDLYDKINTKSSPQIRNPPSDAVQRAKEVLEEISCYPENNDAKELKRILTQPHFMALLQTHDVVAHEVYSDEALRVTPPPTSPYLNGDSPESANGDMDMENVTRVRLVQFQKNTDEPMGITLKMNELNHCIVARIMHGGMIHRQGTLHVGDEIREINGISVANQTVEQLQKMLREMRGSITFKIVPSYRTQSSSCERDSPSTSRQSPANGHSSTNNSVSDLPSTTQPKGRQIYVRAQFEYDPAKDDLIPCKEAGIRFRVGDIIQIISKDDHNWWQGKLENSKNGTAGLIPSPELQEWRVACIAMEKTKQEQQASCTWFGKKKKQYKDKYLAKHNAVFDQLDLVTYEEVVKLPAFKRKTLVLLGAHGVGRRHIKNTLITKHPDRFAYPIPHTTRPPKKDEENGKNYYFVSHDQMMQDISNNEYLEYGSHEDAMYGTKLETIRKIHEQGLIAILDVEPQALKVLRTAEFAPFVVFIAAPTITPGLNEDESLQRLQKESDILQRTYAHYFDLTIINNEIDETIRHLEEAVELVCTAPQWVPVSWVY

Variants of B1 are the subject of the assay. Conditions: with nrx1b_rat Nrxn1, Q63373.
Chain of nrx1b_rat Nrxn1, Q63373 (Q63373 whole entry): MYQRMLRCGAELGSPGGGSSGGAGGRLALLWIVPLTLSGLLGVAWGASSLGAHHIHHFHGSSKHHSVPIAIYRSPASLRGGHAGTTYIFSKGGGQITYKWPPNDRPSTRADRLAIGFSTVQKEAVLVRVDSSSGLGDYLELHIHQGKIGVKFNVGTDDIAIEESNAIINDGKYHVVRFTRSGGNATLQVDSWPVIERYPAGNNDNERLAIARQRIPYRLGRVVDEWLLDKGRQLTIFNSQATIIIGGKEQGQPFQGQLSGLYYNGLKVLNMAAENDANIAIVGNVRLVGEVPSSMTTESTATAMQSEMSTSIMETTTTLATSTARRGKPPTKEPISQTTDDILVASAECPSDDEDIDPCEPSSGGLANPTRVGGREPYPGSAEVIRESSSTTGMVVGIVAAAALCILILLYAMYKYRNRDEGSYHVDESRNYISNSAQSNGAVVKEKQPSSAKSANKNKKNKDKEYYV
For S24D;V26L, the “effect of a mutation on the interaction” value is “decreasing interaction”.

Values taken from IntAct's records for PubMed 18423203.
